Data reported in IntAct's records for PubMed 9430655.

B1: Merlin (Homo sapiens), P35240-1 (parent)
chain: MAGAIASRMSFSSLKRKQPKTFTVRIVTMDAEMEFNCEMKWKGKDLFDLVCRTLGLRETWFFGLQYTIKDTVAWLKMDKKVLDHDVSKEEPVTFHFLAKFYPENAEEELVQEITQHLFFLQVKKQILDEKIYCPPEASVLLASYAVQAKYGDYDPSVHKRGFLAQEELLPKRVINLYQMTPEMWEERITAWYAEHRGRARDEAEMEYLKIAQDLEMYGVNYFAIRNKKGTELLLGVDALGLHIYDPENRLTPKISFPWNEIRNISYSDKEFTIKPLDKKIDVFKFNSSKLRVNKLILQLCIGNHDLFMRRRKADSLEVQQMKAQAREEKARKQMERQRLAREKQMREEAERTRDELERRLLQMKEEATMANEALMRSEETADLLAEKAQITEEEAKLLAQKAAEAEQEMQRIKATAIRTEEEKRLMEQKVLEAEVLALKMAEESERRAKEADQLKQDLQEAREAERRAKQKLLEIATKPTYPPMNPIPAPLPPDIPSFNLIGDSLSFDFKDTDMKRLSMEIEKEKVEYMEKSKHLQEQLNELKTEIEALKLKERETALDILHNENSDRGGSSKHNTIKKLTLQSAKSRVAFFEEL
partner: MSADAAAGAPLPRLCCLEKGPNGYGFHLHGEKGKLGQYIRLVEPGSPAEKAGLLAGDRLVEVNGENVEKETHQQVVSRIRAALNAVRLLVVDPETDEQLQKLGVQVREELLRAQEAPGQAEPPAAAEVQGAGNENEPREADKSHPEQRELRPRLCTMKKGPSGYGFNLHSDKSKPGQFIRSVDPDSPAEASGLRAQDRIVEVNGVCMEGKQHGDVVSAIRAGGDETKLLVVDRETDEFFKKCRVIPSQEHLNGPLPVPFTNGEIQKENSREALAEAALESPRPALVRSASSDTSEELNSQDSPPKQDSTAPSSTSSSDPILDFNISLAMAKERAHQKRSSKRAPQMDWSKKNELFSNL

Variants of: B1
Settings: with nhrf1_human NHERF1, O14745

effect of a mutation on the interaction	Variant
decreasing interaction	N220Y
